Target: T1, FLAG-hSIRT1-FL (full length human SIRT1, FLAG-tagged) (human, UniProt Q96EB6 1-747)
T1 sequence (looked up): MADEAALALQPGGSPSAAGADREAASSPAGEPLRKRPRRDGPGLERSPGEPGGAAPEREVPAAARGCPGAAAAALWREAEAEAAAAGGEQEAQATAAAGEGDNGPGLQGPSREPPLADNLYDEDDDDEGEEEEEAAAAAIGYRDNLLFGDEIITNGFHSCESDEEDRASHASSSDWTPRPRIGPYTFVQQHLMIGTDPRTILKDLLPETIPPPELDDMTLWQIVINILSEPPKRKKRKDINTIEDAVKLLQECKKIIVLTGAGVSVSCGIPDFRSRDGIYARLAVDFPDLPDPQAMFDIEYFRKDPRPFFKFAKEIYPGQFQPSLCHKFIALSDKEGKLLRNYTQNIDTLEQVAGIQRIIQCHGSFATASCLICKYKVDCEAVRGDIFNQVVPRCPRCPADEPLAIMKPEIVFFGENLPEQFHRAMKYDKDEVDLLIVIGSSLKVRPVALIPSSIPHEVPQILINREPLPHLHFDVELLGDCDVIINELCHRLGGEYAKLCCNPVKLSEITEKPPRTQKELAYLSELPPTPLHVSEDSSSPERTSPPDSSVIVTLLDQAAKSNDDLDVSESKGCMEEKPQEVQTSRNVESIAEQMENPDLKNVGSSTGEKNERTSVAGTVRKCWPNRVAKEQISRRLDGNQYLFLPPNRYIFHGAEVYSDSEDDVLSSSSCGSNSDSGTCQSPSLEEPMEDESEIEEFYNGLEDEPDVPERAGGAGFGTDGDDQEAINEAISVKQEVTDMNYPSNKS
Test: pull-down

- binding result: binds
B1: GST-TDG(67–308) (domain or fragment, human, UniProt Q13569 67-308, looked up)
chain: TTEPKQPVEPKKPVESKKSGKSAKSKEKQEKITDTFKVKRKVDRFNGVSEAELLTKTLPDILTFNLDIVIIGINPGLMAAYKGHHYPGPGNHFWKCLFMSGLSEVQLNHMDDHTLPGKYGIGFTNMVERTTPGSKDLSSKEFREGGRILVQKLQKYQPRIAVFNGKCIYEIFSKEVFGVKVKNLEFGLQPHKIPDTETLCYVMPSSSARCAQFPRAQDKVHYYIKLKDLRDQLKGIERNMDV

Reference: publication PMC4465237 (The Biochemical journal, 2013)
